# Source: publication PMC5568661
# Like-named read-outs stand apart in the source and are kept apart here.
# T1: Ets-1 ΔN279 (murine, UniProt P27577 279-440)
# T1 sequence: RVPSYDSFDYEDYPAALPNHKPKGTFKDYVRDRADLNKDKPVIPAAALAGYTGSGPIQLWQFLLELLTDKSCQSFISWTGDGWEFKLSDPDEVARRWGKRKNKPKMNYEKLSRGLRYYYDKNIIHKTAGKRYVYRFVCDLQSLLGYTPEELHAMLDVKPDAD
# T2: Ets-1 ΔN301 (murine, UniProt P27577 301-440)
# T2 sequence: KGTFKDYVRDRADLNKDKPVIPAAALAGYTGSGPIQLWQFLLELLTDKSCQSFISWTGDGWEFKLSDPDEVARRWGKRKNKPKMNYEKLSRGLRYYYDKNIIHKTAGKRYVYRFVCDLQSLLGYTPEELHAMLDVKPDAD
# B1: DNASP14 (dsDNA)
# DNA 1: CCAAGCCGGAAGTG
# DNA 2: CACTTCCGGCTTGG
# B2: DNANSP9 (dsDNA)
# DNA 1: GCACTCTAG
# DNA 2: CTAGAGTGC
# B3: DNANSP15 (dsDNA)
# DNA 1: GATGCAGTGTAGTCG
# DNA 2: CGACTACACTGCATC
# B4: DNASP12 (dsDNA)
# DNA 1: CAGCCGGAAGTG
# DNA 2: CACTTCCGGCTG
# B5: DNASP9 (dsDNA)
# DNA 1: GCCGGAAGT
# DNA 2: ACTTCCGGC
# Columns and labels:
# Experiment in all cases: NMR 15N-HSQC titration
# [1] = target: T1, Ets-1 ΔN279
# [2] = target: T2, Ets-1 ΔN301
# [3] = target: T2, Ets-1 ΔN301; remark: listed apart in the source
# [4] = target: T2, Ets-1 ΔN301; remark: listed apart in the source
# [5] = target: T2, Ets-1 ΔN301; remark: listed apart in the source
binder,measurement,setting,value
B1,binding result,[1],binds
B2,Kd,[2],~10 µM
B3,Kd,[3],< 10 µM
B4,binding result,[4],binds
B5,binding result,[5],binds
